Test results: US20220411536A1 (NUMAB THERAPEUTICS, published 2022)
Blank lines part the entries; values can stand above or below the binder they belong to.

How the values were obtained:
[1] = target: T1, CD3e on Jurkat PD-1 NFAT reporter T cells or on T cells of human PBMCs (human, UniProt P07766 23-207); assay: cell-based or functional assay
[2] = target: T1, CD3e on Jurkat PD-1 NFAT reporter T …; assay: cell-based or functional assay; remark: listed apart in the source
[3] = target: T1, CD3e on Jurkat PD-1 NFAT reporter T …; assay: cell-based or functional assay; remark: listed apart in the source
[4] = target: T2, recombinant human IL-23R (custom-made by Trenzyme) (human, UniProt Q5VWK5 24-355); assay: SPR, immobilised IL-23R
T2 sequence (looked up): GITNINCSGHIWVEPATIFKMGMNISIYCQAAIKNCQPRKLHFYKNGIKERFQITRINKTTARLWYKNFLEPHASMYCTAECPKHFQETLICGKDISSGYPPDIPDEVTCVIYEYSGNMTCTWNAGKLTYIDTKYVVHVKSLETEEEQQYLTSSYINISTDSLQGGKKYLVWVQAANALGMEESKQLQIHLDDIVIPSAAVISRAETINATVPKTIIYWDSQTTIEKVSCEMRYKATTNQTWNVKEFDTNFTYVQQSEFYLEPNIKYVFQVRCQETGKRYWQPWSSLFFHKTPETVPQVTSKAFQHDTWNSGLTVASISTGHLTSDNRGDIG

[5] = target: T3, recombinant human Her2 ECD (SinoBiological, cat. 10004-HCCH) (human, UniProt P04626 23-652); assay: SPR, immobilised Her2 ECD
T3 construct: extracellular domain; bought protein

[6] = target: T4, human HER2 expressed on cells (SK-OV3, MCF-7, HCC1954, HCC827) (human, UniProt P04626 23-1255); assay: flow cytometry, MCF-7 cells
T4 construct: whole, on cells

human serum albumin = target: T5, human serum albumin (human, UniProt P02768 25-609); assay: SPR, immobilised HSA, pH 5.5
T5 construct: also called HSA; human SA

mouse serum albumin = target: T6, mouse serum albumin (mouse, UniProt P07724 25-608); assay: SPR, immobilised MSA, pH 5.5
T6 construct: also called MSA; mouse SA

[7] = target: T4, human HER2 expressed on cells (SK-OV3, …); assay: flow cytometry, SK-OV3 cells
[8] = target: T7, Fc-tagged human PD-L1 extracellular domain (SinoBiological, cat. 10084-H02H) (human, UniProt Q9NZQ7 19-238); assay: SPR, captured Fc-PD-L1 ECD, kinetic
T7 construct: extracellular domain; also called hPD-L1; not shown: Fc tag of the bought protein

[9] = target: T7, Fc-tagged human PD-L1 extracellular …; assay: SPR, captured Fc-PD-L1 ECD, steady state
[10] = target: T8, recombinant human CD3E ECD (SinoBiological, cat. 10977-H08H) (human, UniProt P07766 23-126); assay: SPR, immobilised CD3e ECD, two-state model
T8 construct: extracellular domain; bought protein; also called CD3s

[11] = target: T4, human HER2 expressed on cells (SK-OV3, …); assay: flow cytometry, SK-OV3 cells, no competitor
[12] = target: T4, human HER2 expressed on cells (SK-OV3, …); assay: flow cytometry, IFNy-stimulated HCC827 cells
[13] = target: T4, human HER2 expressed on cells (SK-OV3, …); assay: flow cytometry, IFNy-stimulated HCC1954 cells
[14] = target: T8, recombinant human CD3E ECD …; assay: SPR, immobilised CD3e ECD, two-state model (ka1)
[15] = target: T8, recombinant human CD3E ECD …; assay: SPR, immobilised CD3e ECD, two-state model (kd1)
[16] = target: T4, human HER2 expressed on cells (SK-OV3, …); assay: flow cytometry, SK-OV3 cells, competitor 50 nM pertuzumab
[17] = target: T9, human PD-L1 expressed on cells (CHO-PD-L1, HCC1954, HCC827) (human, UniProt Q9NZQ7 19-290); assay: flow cytometry, inhibition of biotinylated PD-1 binding to HCC827 cells
T9 construct: whole, on cells; also called hPD-L1; PD-L1 expressing cells

[18] = target: T9, human PD-L1 expressed on cells …; assay: flow cytometry, inhibition of biotinylated PD-1 binding to HCC1954 cells
[19] = target: T7, Fc-tagged human PD-L1 extracellular …; assay: SPR, captured Fc-PD-L1 ECD, kinetic; kinetic analysis; the patent holds the steady state KD (3.47E-07 M) for the valid one
[20] = target: T3, recombinant human Her2 ECD …; assay: SPR, human Her-2
[21] = target: unidentified antigen on CHO PD-L1 cells bound by pertuzumab (the filing speculates hamster HER2); assay: flow cytometry, CHO PD-L1 cells (residual binding)
[22] = target: T4, human HER2 expressed on cells (SK-OV3, …); assay: flow cytometry, SK-OV3 cells, competitor 50 nM trastuzumab
[23] = target: T7, Fc-tagged human PD-L1 extracellular …; assay: SPR
[24] = target: T7, Fc-tagged human PD-L1 extracellular …; assay: SPR, captured Fc-PD-L1 ECD, scFv analyte, kinetic
[25] = target: T7, Fc-tagged human PD-L1 extracellular …; assay: SPR, captured Fc-PD-L1 ECD, scFv analyte, steady state

IC50, NFAT reporter, CHO-PD-L1 (A2 clone) cells [1]: 29.2 nM | IC50, NFAT reporter, HCC1954 cells [1]: 0.402 nM | IC50, NFAT reporter, HCC1954 cells, + nivolumab [1]: 0.125 nM | rel. max. activation vs PRO1497, NFAT reporter, HCC1954 cells [1]: 102% | rel. max. activation vs PRO1497 on HCC1954, NFAT reporter, CHO-PD-L1 (A2 clone) cells [1]: 62% | T cell activation IC50, PBMC with HCC827 cells [2]: 0.136 nM | T cell activation IC50, PBMC with HCC1954 cells [2]: 0.049 nM | Kd [5]: 0.406 nM | koff [5]: 6.26e-05 s⁻¹ | kon [5]: 154000 M⁻¹ s⁻¹ | EC50 [6]: 28.6 nM | Kd (human serum albumin): 0.81 nM | koff (human serum albumin): 0.000118 s⁻¹ | kon (human serum albumin): 145000 M⁻¹ s⁻¹ | Kd (mouse serum albumin): 19.5 nM | koff (mouse serum albumin): 0.00117 s⁻¹ | kon (mouse serum albumin): 60200 M⁻¹ s⁻¹ | EC50 [7]: 3.32 nM | koff [8]: 0.000367 s⁻¹ | kon [8]: 17600 M⁻¹ s⁻¹ | Kd [9]: 347 nM | KD1 [10]: 28.5 nM | Kd [10]: 15.7 nM | kd2 [10]: 0.00503 s⁻¹ | EC50 [11]: 4.09 nM | EC50 [12]: 3.9 nM | EC50 [13]: 27.8 nM | kon [14]: 190000 M⁻¹ s⁻¹ | koff [15]: 0.00542 s⁻¹ | EC50 [16]: 4.16 nM | IC50 [17]: 59.2 µg/mL | IC50 [18]: 0.601 µg/mL | Kd [19]: 20.9 nM
B1: PRO1543 (multispecific antibody)
chain 1: not shown
chain 2: DIQMTQSPSSLSASVGDRVTITCQASQSINDYLAWYQQKPGKAPKLLIYKASTLASGVPSRFSGSGSGTDFTLTISSLQPEDFATYYCQAAYIITDIDNVFGTGTKVTVLGGGGGSGGGGSGGGGSGGGGSQVQLQESGPGLVKPSETLSLTCKVSGFSFSSGYDMCWIRQPPGKGLEWIGCVVAGSVDITYYASWAKGRVTISVDSSKNQFSLKLSSVTAADTAVYYCARKDAYSDAFNLWGQGTLVTVSSGGGGSGGGGSEVQLVESGGGLVQPGGSLRLSCAASGFSLSSYDMSWVRQAPGKGLAWIGASYASGPTYYASWAKGRFTISRDNSKNTVYLQMNSLRAEDTATYFCARGGWTGTSHSNIWGQGTLVTVSSGGGSGGGSEVQLVESGGGLVQPGGSLRLSCAASGFSFSSSYWICWVRQAPGKCLEWVGCVFTGDGTTYYASWAKGRFTISRDNSKNTVYLQMNSLRAEDTATYFCARPVSVYYYGMDLWGQGTLVTVSS
notes: also called trastuzumab-based MATCH4
target cell killing IC50, 16 h, HCC1954 cells [3]: 0.00023 nM | target cell killing IC50, 16 h, MCF-7 cells [3]: 0.00311 nM | binding result [4]: no binding (tested: 90 nM highest concentration)

Kd [20]: 0.414 nM | koff [20]: 8.11e-05 s⁻¹ | kon [20]: 196000 M⁻¹ s⁻¹ | T cell activation IC50, PBMC with HCC827 cells [2]: 0.153 nM | T cell activation IC50, PBMC with HCC1954 cells [2]: 0.027 nM | EC50 [6]: 5.35 nM | EC50 [7]: 1.87 nM | EC50 [11]: 2.02 nM | EC50 [12]: 1.34 nM | EC50 [13]: 17.3 nM | EC50 [21]: 97.3 nM | EC50 [22]: 4.55 nM
B2: PRO1895 (multispecific antibody)
chain 1: DIQMTQSPSSLSASVGDRVTITCKASQDVSIGVAWYQQKPGKAPKLLIYSASYRYTGVPSRFSGSGSGTDFTLTISSLQPEDFATYYCQQYYIYPYTFGCGTKVTVLGGGGGSGGGGSGGGGSGGGGSEVQLVESGGGLVQPGGSLRLSCAASGFTFTDYTMDWVRQAPGKCLEWVADVNPNSGGSIYNQRFKGRFTLSVDRSKNTLYLQMNSLRAEDTAVYYCARNLGPSFYFDYWGQGTLVTVSSGGGGSGGGGSDVVMTQSPSSLSASVGDRVTITCQASQIISSRSAWYQQKPGQPPKLLIYQASKLASGVPSRFSGSGSGTDFTLTISSLQPEDFATYYCQCTYIDSNFGAFGCGTKLTVLGGGSGGSDIQMTQSPSSLSASVGDRVTITCQSSQSVFSNNYLAWFQQKPGQSPKRLIYSASTLASGVPSRFSGSGSGTDFTLTISSLQPEDFATYYCLGSYACSSADCYVFGTGTKVTVLG
chain 2: B1 chain 2
notes: also called pertuzumab-based MATCH4

fold reduction of affinity vs PRO830 [23]: 6500 fold | Kd [24]: 492 nM | koff [24]: 0.535 s⁻¹ | kon [24]: 1.09e+06 M⁻¹ s⁻¹ | Kd [25]: 487 nM
B3: PRO1434 (scFv, V domains shown)
VH: QVQLQESGPGLVKPSETLSLTCKVSGFSFSSGYDMCWIRQPPGKGLEWIGCVVAGSVDITYYASWAKGRVTISVDSSKNQFSLKLSSVTAADTAVYYCARKDAYSDAFNLWGQGTLVTVSS
VL: DIQMTQSPSSLSASVGDRVTITCQASQSINDYLAWYQQKPGKAPKLLIYKASTLASGVPSRFSGSGSGTDFTLTISSLQPEDFATYYCQAAYIITDIDNVFGTGTKVTVLG
notes: also called 33-03-G02 VL-Q108A/G109A
